# Measurements from patent US20230043577.
# How the values were obtained:
# Experiment in all cases: EMSA
# [1] = target: MeCP2 MBD (hMeCP2[90-181]) wild type (Homo sapiens) (UniProt P51608)
# [2] = test system: MeCP2 MBD R133C R133C (Homo sapiens); conditions: same buffer
# [3] = test system: MeCP2 MBD S134C S134C (Homo sapiens); conditions: same buffer
# [4] = unmodified C in CpG of one strand, 5hmC in the other
# [5] = 5hmC in CpG of one strand, 5fC in the other
# [6] = 5mC in CpG of one strand, 5fC in the other
# [7] = 5mC in CpG of one strand, 5hmC in the other
# Sequence of MeCP2 MBD (hMeCP2[90-181]) wild type (Homo sapiens) (P51608 90-181): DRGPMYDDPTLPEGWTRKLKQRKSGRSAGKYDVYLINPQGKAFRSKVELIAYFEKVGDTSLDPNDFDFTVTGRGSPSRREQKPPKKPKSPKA
substance,measurement,setting,value
24-mer C/hmC CpG duplex,Kd,"[1]; unmodified C in CpG of one strand, 5hmC in the other, same buffer",1080 nM
same,Kd,[2]; [4],8100 nM
same,Kd,[3]; [4],7600 nM
24-mer hmC/fC CpG duplex,Kd,"[1]; 5hmC in CpG of one strand, 5fC in the other, same buffer",540 nM
same,Kd,[2]; [5],1630 nM
same,Kd,[3]; [5],4600 nM
24-mer hmC/hmC CpG duplex,Kd,"[1]; 5hmC in CpG on both strands, same buffer",970 nM
same,Kd,[2]; 5hmC in CpG on both strands,2560 nM
same,Kd,[3]; 5hmC in CpG on both strands,7600 nM
24-mer mC/fC CpG duplex,Kd,"[1]; 5mC in CpG of one strand, 5fC in the other, same buffer",197 nM
same,Kd,[2]; [6],540 nM
same,Kd,[3]; [6],790 nM
24-mer mC/hmC CpG duplex,Kd,"[1]; 5mC in CpG of one strand, 5hmC in the other, same buffer",224 nM
same,Kd,[2]; [7],660 nM
same,Kd,[3]; [7],1150 nM
24-mer mC/mC CpG duplex,Kd,"[1]; 5mC in CpG on both strands, room temperature, 50 ng/uL poly(dA)poly(dT), 20 mM HEPES pH 7.3 buffer",27 nM
same,Kd,[2]; 5mC in CpG on both strands,118 nM
same,Kd,[3]; 5mC in CpG on both strands,117 nM
